{"source": "paper PMC8406188", "about": "(mBio, 2021)", "molecules": {"B1": {"name": "E. coli OmpC (wild type), synthesized in vitro without its signal peptide (natural protein, UniProt P06996 22-367, looked up)", "chain": "AEVYNKDGNKLDLYGKVDGLHYFSDNKDVDGDQTYMRLGFKGETQVTDQLTGYGQWEYQIQGNSAENENNSWTRVAFAGLKFQDVGSFDYGRNYGVVYDVTSWTDVLPEFGGDTYGSDNFMQQRGNGFATYRNTDFFGLVDGLNFAVQYQGKNGNPSGEGFTSGVTNNGRDALRQNGDGVGGSITYDYEGFGIGGAISSSKRTDAQNTAAYIGNGDRAETYTGGLKYDANNIYLAAQYTQTYNATRVGSLGWANKAQNFEAVAQYQFDFGLRPSLAYLQSKGKNLGRGYDDEDILKYVDVGATYYFNKNMSTYVDYKINLLDDNQFTRDAGINTDNIVALGLVYQF", "modifications": "fluorescent lysine residues (BODIPY-FL at the ε position, from FluoroTect GreenLys) incorporated during synthesis"}, "B2": {"name": "Urea-denatured OmpC S71C, fluorescently labeled at residue 71 with BODIPY-FL (natural protein, E. coli, UniProt P06996 22-367, looked up)", "chain": "B1 chain with S71C", "modifications": "BODIPY-FL maleimide on the cysteine at 71"}, "B3": {"name": "Urea-denatured wild-type OmpC purified from inclusion bodies (natural protein, E. coli, UniProt P06996 22-367, looked up)", "chain": "B1 chain"}}, "key": {"[1]": {"molecular_target": "OmpC(K255am) with benzoyl phenylalanine (Bpa) at residue 255 (E. coli) (UniProt P06996)", "assay": "SDS-PAGE of unheated and heated samples (heat-sensitive oligomers); OmpC amber mutants synthesized in PURExpress lacking release factor 1 with FluoroTect, tRNATAG-BPA, SurA, Rc LPS and Bam POPC proteoliposomes; 30 min, 30°C; with or without UV"}, "[2]": {"molecular_target": "OmpC(K281am) with benzoyl phenylalanine (Bpa) at residue 281 (E. coli) (UniProt P06996)", "assay": "SDS-PAGE of unheated and heated samples (heat-sensitive oligomers); OmpC amber mutants synthesized in PURExpress lacking release factor 1 with FluoroTect, tRNATAG-BPA, SurA, Rc LPS and Bam POPC proteoliposomes; 30 min, 30°C; with or without UV"}, "[3]": {"molecular_target": "the molecule itself", "assay": "SDS-PAGE of unheated and heated samples (heat-sensitive oligomers), with proteinase K; OmpC synthesized in PURExpress with FluoroTect, SurA, smooth LPS from E. coli O55:B5 (0.5 mg/ml) and Bam DLPC proteoliposomes; 30 min, 37°C"}, "[4]": {"molecular_target": "the molecule itself", "assay": "SDS-PAGE of unheated and heated samples (heat-sensitive oligomers), with proteinase K; 0.2 μM urea-denatured OmpC S71C-BODIPY-FL added to SurA, Bam proteoliposomes (text: Bam DLPC; legend: Bam DMPC) and Rc LPS in a complete mixture of PURExpress components; 30 min, 37°C"}, "[5]": {"molecular_target": "the molecule itself", "assay": "SDS-PAGE of unheated samples (oligomers), colloidal blue staining; urea-denatured OmpC folded into 1% DDM-0.4% DDG, 50 mM Tris pH 8.0, 1 mM DTT, 0.1 mM EDTA; 37°C, 24 h"}}, "note": "Where a chain is given by its changes, count along the chain named. Numbers in names are those of the source. Where “and” joins values, the source holds several entries; their conditions need not be identical. Equal values may be shown once."}
{"molecule": "OmpC(K255am) with benzoyl phenylalanine (Bpa) at residue 255 (from UniProt P06996 22-367) (natural protein)", "values": [{"measurement": "stoichiometry N", "setting": "[1]", "result": 3}]}
{"molecule": "OmpC(K281am) with benzoyl phenylalanine (Bpa) at residue 281 (from UniProt P06996 22-367) (natural protein)", "values": [{"measurement": "stoichiometry N", "setting": "[2]", "result": 3}]}
{"molecule": "B1", "values": [{"measurement": "stoichiometry N", "setting": "[3]", "result": "2 and 3"}]}
{"molecule": "B2", "values": [{"measurement": "stoichiometry N", "setting": "[4]", "result": "2 and 3"}]}
{"molecule": "B3", "values": [{"measurement": "stoichiometry N", "setting": "[5]", "result": 3}]}
